Measured values: patent publication US20230302100A1

Key:
denosumab (XGEVA) = assay: cell-based or functional assay
adalimumab (Humira) = assay: cell-based or functional assay

Substance: pCART144 (IdeZ with N terminal methionine and histidine tag) (enzyme)
- IgG2 (denosumab) cleavage, SDS-PAGE titration: enzyme concentration giving a dominating F(ab')2 band (denosumab (XGEVA)): 3.3 µg/mL
- IgG2 (denosumab) cleavage, SDS-PAGE titration: enzyme concentration giving a single intense scIgG band (denosumab (XGEVA)): 0.12 µg/mL
- IgG1 (adalimumab) cleavage, SDS-PAGE titration: enzyme concentration of equal cleavage (adalimumab (Humira)): 4.6 ng/mL
